From patent publication US11840574B2, “Anti-DR5 antibody and use thereof” (DONG-A ST CO., LTD., priority 2017, dated 2023)
Changes are numbered by the printed parent chain.

B1: DA22: humanized or deimmunized variant of parental clone D0; CDRs SEQ ID NO 1, 2, 8 / 4, 10, 13 (antibody, V domains shown)
VH: EVQLVESGGGLVQPGGSLRLSCAASGFTFSSFNMLWVRQAPGKGLEWVAGIGKSDRYTGYGSAVKGRFTISRDDSKSTVYLQMNSLRAEDTAVYYCVRDAGSPCGSGGWTGACIDTWGQGTLVTVSS
VL: DIQMTQSPSSLSASVGDRVTITCSGGDSYAGSYYYGWYQQKPGKAPKTLIYNNNNRPSGVPSRFSGSTSGTDFTLTISSLQPEDFATYYCGSRDSSYVGIFGQGTKVEIK
B2: DA23: humanized or deimmunized variant of parental clone D0; CDRs SEQ ID NO 1, 2, 9 / 4, 10, 13 (antibody, V domains shown)
VH: B1 VH with S106K
VL: B1 VL
B3: DA29: humanized or deimmunized variant of parental clone D0; CDRs SEQ ID NO 1, 2, 7 / 4, 10, 13 (antibody, V domains shown)
VH: AVTLDESGGGLQTPGGGLSLVCKGSGFTFSSFNMLWVRQAPGKGLEWVAGIGKSDRYTGYGSAVKGRATISRDDGQSTARLQLNNLRAEDTGTYYCVKDAGSGCGSGGWTGACIDTWGHGTEVIVSS
VL: LTQPSSVSANLGGTVEITCSGGDSYAGSYYYGWYQQKAPGSAPVTVIYNNNNRPSNIPSRFSGSTSGSTATLTITGVQAEDEATYFCGSRDSSYVGIFGAGTTLTVL

How the values were obtained:
[1] = biological target: T1, Human DR5 (Homo sapiens, UniProt O14763); assay: Binding affinity of antibody to human DR5 (BIAcore, CM5 chip); settings: for Ka(1/Ms): association rate, Human DR5, 1:1 Langmuir binding model; for Kd: equilibrium dissociation constant, Human DR5
Protocol: In order to measure affinity, human DR5 was coupled to carboxylated dextran biosensor chips (CM5, GE) according to the manufacturer's instruction. Association and dissociation rates were assessed by injecting IgG proteins that were 2-fold serially diluted to 5 nM, 2.5 nM, 1.25 nM, 0.625 nM, 0.313 nM, and 0.156 nM.
Association and dissociation rates were depicted in association and dissociation sensorgrams and calculated using a simple 1:1 Langmuir binding model (BIAcore X100 Evaluation Software, ver. 2.0). The equilibrium dissociation constants (KD), which is the ratio of dissociation constant (Kd) to association constant (Ka), were confirmed to be in the sub-nanomolar range. Measurements of the binding of antibody D0 and DA1 to DA35 of the present disclosure to DR5 are given in Table 11 below (antibody names are given as the names of the clones from which the antibodies were derived). A representative sensorgram for D0 is depicted in FIG. 1.

[2] = Pharmacokinetics of antibody in nude mice (plasma ELISA); format: in vivo; settings: intravenous, 10 mg/kg
Protocol: In order to examine in vivo kinetics of the antibodies constructed above, blood half-life was evaluated in mice. Antibodies were intravenously injected at doses of 1-10 mg/kg into nude mice. Blood was sampled from the orbital vein from 5 min to 14 days after injection. The blood collection was conducted using heparinized capillary tubes. Plasma obtained by centrifugation of the blood samples was diluted at certain ratios and used as samples for ELISA evaluation. Human DR5 diluted to a concentration of 10 ng/ml was plated at 100 μl per well onto 96-well immune plates (Nunc, U.S.A.) and adsorbed to the wells for 12-14 hours. The plates were washed three times with buffer solution containing 0.1% Tween 20 and blocked with buffer solution containing bovine serum albumin (Sigma, U.S.A.) at room temperature for 1 hour. After three rounds of washing with buffer solution, the plates were incubated with each of the mouse plasma dilutions and a serial dilution of standard substance at room temperature for 2 to 3 hours. After three washes with buffer solution, a 1:20000 dilution of an HRP-conjugated anti-human immunoglobulin Fc (Fc-HRP) antibody (Bethyl, U.S.A.) was added at a volume of 100 μl per well and incubated at room temperature for 1 hour. After washing three times, 100 μl of a TMB solution (Sigma, U.S.A.) was added to each well and allowed to react. When the color development reached a certain level, the reaction was terminated with 0.2 N sulfuric acid solution. Absorbance at 450 nm was measured using a spectrophotometer (Molecular Device, U.S.A.). The antibody concentration in each plasma sample was calculated from the optical density (OD) measurements, and pharmacokinetic parameters were estimated using WinNonLin ver. 6.2.0.495.

[3] = biological target: T1, Human DR5; assay: TRAIL competitive enzyme-linked immunosorbent assay; format: binding; settings: 0.01-400 nM of TRAIL protein, absorbance at 405 nm
Protocol: In order to examine antigen-binding characteristics of the antibodies selected in Example 3, a TRAIL competitive enzyme-linked immunosorbent assay was conducted. ELISA plates were coated with 0.1 μg/ml human DR5 (R&D systems, U.S.A.) at 4° C. Thereafter, the plates were incubated with 0.01 nM-1440 nM of antibodies (D0, DA20, DA21, DA21, DA22, and DA23) together with 0.01-400 nM of TRAIL protein for 2 hours. After the plates were washed three times with PBST (0.1% bovine serum albumin and Tween-20 in PBS), HRP (horse radish peroxidase)-conjugated anti-human immunoglobulin Fc was added to each well and incubated for 1 hour. After three washes with PBST, color development was performed for 20 min with ABTS (Thermo, U.S.A.). When the color development reached to a certain level, the reaction was terminated with 1 N sulfuric acid. Absorbance at 405 nm was measured using a spectrophotometer (Molecular Device, U.S.A.) and is depicted in FIGS. 8a and 8b. The antibody AP disclosed in Example (7-1) was used as a control.

[4] = tested on: human pancreatic cell line Miapaca-2; assay: Cell death activity upon co-treatment with TRAIL, Miapaca-2; format: cell-based; settings: Miapaca-2, antibody as low as 10 ng/ml, TRAIL 0.5, 1, 10 ng/ml
Protocol: (§1) Antibody properties according to epitopes were analyzed in terms of cell death activity upon co-treatment with the constructed antibodies and TRAIL. In this test, the human colorectal cancer cell line Colo205 (ATCC, U.S.A.) and the human pancreatic cell line Miapaca-2 (ATCC, U.S.A.) were employed. The tumor cells were suspended at a concentration of 1×10^5 cells/ml and the suspensions were plated at 50 μl per well into 96-well culture plates, followed by incubation for 16-24 hours in a constant temperature and humidity chamber. Serial dilutions of the antibodies (0.1-10000 ng/ml) and TRAIL protein at determined concentrations (0.5, 1, 10 ng/ml) were applied in combination to the 96-well plates. After incubation for 48 to 72 hours at a constant temperature in a humidified condition, a resazurin solution (Invitrogen, U.S.A.) was added at an amount of 10 μl to per well. When the reaction reached a certain level after 1 to 2 hours, fluorescence was read at 590 nm using a spectrophotometer (Molecular Device). Cell viability was calculated as the percentage of relative fluorescence units (RFU) of a test substance-treated group (treated RFU) to the relative fluorescence units of a culture medium-treated group (untreated RFU) (Cell viability (%)=treated RFU/Untreated RFU×100).
(§2) Representative results are depicted in FIGS. 9a (Colo205) and 9b (Miapaca-2). […]

[5] = tested on: human colorectal cancer cell line Colo205; assay: Cell death activity upon co-treatment with TRAIL, Colo205; format: cell-based; settings: Colo205, antibody as low as 10 ng/ml, TRAIL 0.5, 1, 10 ng/ml
Protocol: as §1, §2

[6] = tested on: caspase-3/7; assay: Intracellular caspase activity (Apo-ONE Caspase-3/7), Miapaca-2; format: cell-based, human; settings: Miapaca-2, Ab alone or Ab linked, 4 hours
Protocol: (§3) In order to investigate the cell death mechanism thereof, the constructed antibodies were assayed for caspase activity. The activity of caspase-3/7 was measured using Apo-ONE® Homogeneous Caspase-3/7 Assay kit (Promega, U.S.A.). In this assay, the human colorectal cancer cell line Colo205 (ATCC, U.S.A.), the human pancreatic cancer cell line Miapaca-2 (ATCC, U.S.A.), and the lung cancer cell line H2122 (ATCC, U.S.A.) were employed. A suspension of each tumor cell line having a concentration of 1×10^5 cells/ml was plated at a volume of 50 μl per well into 96-well cell culture plates and cultured for 16-24 hours in a constant temperature and humidity chamber. The cells were treated with predetermined concentrations (0.01-10000 ng/ml) of the antibody alone (Ab alone) or in combination with a crosslinking antibody (anti-human Fc) (Serotec, U.S.A.) (Ab linked) and then cultured for 4 hours. […] When the reaction reached a predetermined level, fluorescence was read at 520 nm using a spectrophotometer (Molecular Device). Caspase activity was calculated as a fold increase of relative fluorescence units (RFU) of a test substance-treated group (treated RFU) to over the relative fluorescence units of a culture medium-treated group (untreated RFU) (Caspase activity=treated RFU/Untreated RFU). […]

[7] = tested on: caspase-3/7; assay: Intracellular caspase activity (Apo-ONE Caspase-3/7), H2122; format: cell-based, human; settings: H2122, Ab alone or Ab linked, 4 hours
Protocol: as §3

[8] = tested on: caspase-3/7; assay: Intracellular caspase activity (Apo-ONE Caspase-3/7), Colo205; format: cell-based, human; settings: Colo205, Ab alone or Ab linked, 4 hours
Protocol: as §3

[9] = tested on: human pancreatic cancer cell line Panc-1; assay: Tumor cell death assay, co-treatment with gemcitabine, Panc-1; format: cell-based; settings: Panc-1, gemcitabine 3 nM-300 nM, 48 to 72 hours
Protocol: (§4) Effects obtained from co-treatment with the above constructed antibody and gemcitabine were evaluated using in vitro tumor cell death assay.
(§5) The human pancreatic cancer cell lines Miapaca-2 (ATCC, U.S.A.) and Panc-1 (ATCC, U.S.A.) were each suspended at a density of 1×10^5 cells/ml. The suspensions were added in an amount of 50 μl to each well of 96-well cell culture plates and incubated for 16-24 hours in a constant temperature and humidity chamber. The cancer cell lines were treated with the anti-DR5 antibodies of the present disclosure including D0 in combination with certain concentrations (3 nM-300 nM) of gemcitabine and cultured for 48 to 72 hours. The cells were further incubated for 1 to 3 hours after addition of 10 μl of a resazurin solution (Invitrogen, U.S.A.) per well. When the reaction proceeded to a predetermined level, fluorescence was read at 590 nm using a spectrophotometer (Molecular Device). Cell viability was calculated as the percentage of relative fluorescence units (RFU) of a test substance-treated group (treated RFU) to relative fluorescence units of a culture medium-treated group (untreated RFU) (Cell viability (%)=treated RFU/Untreated RFU×100). The results are depicted in FIGS. 6a to 6r. Representative results are depicted in FIGS. 11a (Miapaca-2) and 11b (Panc-1). For comparison, the control antibody AP was treated in the same manner

[10] = tested on: human pancreatic cancer cell line Miapaca-2; assay: Tumor cell death assay, co-treatment with gemcitabine, Miapaca-2; format: cell-based; settings: Miapaca-2, gemcitabine 3 nM-300 nM, 48 to 72 hours
Protocol: as §4, §5

Molecule	Ka(1/Ms) [1]	Kd [1]	Cmax [2]	t½ Terminal (2 d~14 d) [2]	t½ initial (−1 d) [2]	antigen binding in the presence of TRAIL [3]	cell death activity in combination with TRAIL, compared to antibody alone [4]	cell death activity in combination with TRAIL, compared to antibody alone [5]	activity of caspase-3/7 [6]	activity of caspase-3/7 [7]	activity of caspase-3/7 [8]	apoptotic activity upon co-treatment with gemcitabine relative to each individual substance [9]	apoptotic activity upon co-treatment with gemcitabine relative to each individual substance [10]
B1	9.32 × 10^05 1/Ms	0.0342 nM	227.9 µg/mL	201 h	16.8 h	maintained a certain level of antigen binding irrespective of TRAIL concentrations							
B2	6.96 × 10^05 1/Ms	0.0403 nM	195.8 µg/mL	191 h	13.9 h	maintained a certain level of antigen binding irrespective of TRAIL concentrations	higher cell death activity	higher cell death activity					
B3	1.21 × 10^06 1/Ms	0.0698 nM							increase in the activity of casapse-3/7	increase in the activity of casapse-3/7	increase in the activity of casapse-3/7	increased apoptotic activity	increased apoptotic activity
